Source: patent publication US20200216824A1, “REGULATING PROTEIN SPONTANEOUS RUPTURES” (Bowling Green State University, priority 2019, published 2020)
Entries after “also recorded” stand apart in the source; their conditions may differ.

Columns and labels:
[1] = biological target: tau protein (Homo sapiens, UniProt P10636); assay: Effect of cations on tau protein rupture under AFM compressive force; conditions: buffer solution pH 7.4
From the text: This gives the indication of the presence of two forms of tau protein under different ionic environment. Under K^+environment tau protein exists as a relatively rigid protein structure which is more prone to collapse under compressive force build up. […] In addition, it was also investigated whether this kind of spontaneous and simultaneous rupture of multiple proteins under close proximity can develop an entangled protein third state, a fusion state, and can be a plausible mechanism for protein aggregation.
The protein molecules were tethered to the cover glass through covalent bonding between the amine group of the protein and the linker molecule attached to the coverglass surface. All the force curves were recorded under buffer solution (pH 7.4). When the AFM tip apex touches the surface of the protein molecule it starts loading force on it, once the force reaches a threshold value it can no longer withhold the force and collapses (FIG. 16A). This kind of behavior exists in globular proteins such as HPPK, calmodulin, and others.
Without wishing to be bound by theory, it is believed that there is a comprehensive model for two types of protein structure responses under compressive forces (FIG. 18C, green curve). One is a balloon-like type, reflected by the stress-strain curve in FIG. 18C, which is more rigid in nature and show rupture under compressive force. […]

[2] = biological target: calmodulin (CaM) (Homo sapiens, UniProt P0DP23); assay: Effect of Ca2+ / EGTA on CaM rupture under AFM compressive force; conditions: 1 mM CaCl2 for Ca2+; 2 mM EGTA buffer treatment
Method: (§1) In the experiment of compressive force manipulation on both Apo- and Ca^2+-ligated CaM, a modified AFM apparatus with an ultra-soft AFM tip was used to apply compressive force on a single protein molecule tethered to a glass coverslip through covalent bonding between the linker molecule and amino group of the protein, and its response was studied.
The same experiment was carried out on Ca^2+-ligated CaM. FIG. 14B represents the typical AFM compressive force curve on a Ca^2+-ligated single CaM molecule. […] Nevertheless, repeated rupture events on a single protein molecule have been noticed when a repeated force manipulation experiment on the same protein molecule has been carried out.
FIG. 29 illustrates the scheme of tethering single protein molecules on a cover glass surface. The cover glass (Gold Seal) was first cleaned and silanized with a mixture of (3-aminopropyl) trimethoxysilane, isobutyltrimethoxysilane with a ratio of 1:1000 dissolved in DMSO (10% v/v) for 12 hours, and then incubated in 10 nM dimethyl suberimidate in 50 mM PBS (pH 8.0) for 4 h. After washing with water and methanol, the glass slide was incubated in 10 nM CaM solutions (PBS, pH 7.4) for 4 h. […]
Typical compressive force curves were recorded under different conditions. […]

[3] = AFM compressive force rupture of single CaM molecules (CaM, Apo-CaM, Ca2+-ligated CaM); assay type: physicochemical
Method: The mean rupture force from the distributions are 25 pN and 47 pN for CaM and HPPK molecules, respectively. ΔG was also calculated for CaM rupture, which is about 25.6±7.3 kBT using Bell-Evans Model. The characteristic behavior is due to different structural rigidity and a different vector orientation of the mechanical force inside different protein molecules.
The experiments for CaM protein were repeated under five different ALRs. FIGS. 11A-11E show the statistical distribution of the threshold force at five different ALRs and characterization of CaM rupture force and loading energy. FIGS. 11A-11E show the rupture threshold force distribution in different loading velocities. […] Loading velocity is 100 nm/s. The threshold force required for a single CaM protein molecule to rupture increases from 12 pN to 35 pN as the approaching velocity increases from 50 nm/s to 1000 nm/s, and the threshold force increases linearly along with the log of ALR (FIG. 8D).
as §1
From this distribution, the rupture force was calculated to be around 70 pN. This rupture force is dependent on the AFM tip approaching velocity. To calculate the actual threshold force loading distance, i.e., the amount of structural change of the targeted Apo-CaM molecule under the process of compressive force loading to the threshold value, the force curves were analyzed considering two factors. First, the force loading process causes the tip bending. Because of that, the distance traveled by the electropiezo scanner exceeds the distance traveled by the AFM tip apex. The amount of tip bending in the process of force loading can be easily taken in account considering the force constant of the cantilever (30 pN/nm). Second, the contribution of the hydration shell around a protein molecule (1-2 nm of width) was considered. Therefore, in the recorded force curves, force increases in a much slower rate at the beginning which corresponds to the AFM tip interaction with the outer solvation layer of the protein. In the latter part of the force curve, the force increases in a much faster manner as the AFM tip starts to interact with the protein surface directly. Without wishing to be bound by theory, it is believed that the contact occurs when the compressive force loaded by the AFM tip reaches a certain value to counter the water solvation layer. […]
It is the distance between the point where force loading starts and the point where protein rupture occurs. […] The loading energy was calculated using Eloading=∫F(l)dl, where l is the compressive force loading distance, and F(l) is the loading force. […] Under this approximation, distribution of the calculated threshold compressive force loading energy was plotted in FIG. 15D using Eloading=(F threshold/2)×lthreshold and the mean value was around 32 kBT; however, the energy can be as low as 10 kBT with significant probability, which is biologically accessible from the local thermal fluctuations, such as in living mammalian cells at 37° C.
The loading energy was calculated using Eloading=J F(l)dl. l is the compressive force loading distance, and F(l) is the loading force curve. […]

[4] = AFM-FRET compressive force rupture of single HPPK molecules; assay type: physicochemical
From the text: 6-hydroxymethyl-7,8-dihydropterin pyrophosphokinase (HPPK) is a 158-residue monomer kinase enzyme protein which acts as a catalyst in the pyrophosphorylation reaction that drives the conversion of 6-hydroxymethyl-7,8-dihydropterin (HP) to 6-hydroxymethyl-7,8-dihydropterin pyrophosphate (HPPP) in the presence of ATP leading to the biosynthesis of folate cofactors. AFM was used to apply the compressive force on single protein molecules that are tethered on the glass cover slip surface at a controlled low density for single-molecule measurements. The enzyme HPPK was labeled with Cy3/Cy5 donor acceptor FRET pair on the amino acid residues 88 and 142, respectively (FIG. 2A), for probing the conformational changes of single protein under the compressive force.
The structural rupture of a single HPPK protein under compressive force applied by AFM tip was evaluated. […] When the AFM tip touches a single protein molecule, a compressive force is applied on the targeted protein, the force monotonically increases up to the level of about 60 pN (FIG. 1E), and then the force drops to zero abruptly.
As the piezo continues to approach toward the surface, the compressive force on the protein molecule increases; simultaneously, the protein starts to deform. When the force reaches a threshold value, the protein molecule suddenly ruptures, and the force on the tip releases to zero. As the AFM piezo continues to approach the glass coverslip surface, the tip on glass cannot move anymore, and as a result, piezo displacement causes tip bending. Therefore, from top to bottom, the cantilever bending distance=the piezo displacement D (nm); and the direct AFM instrumental electronic signal was measured and recorded for the loading force, F (mV). If the cantilever force constant k (pN/nm) is known, then, from the reading of measured f (mV), the protein rupture threshold force (pN)=[…] can be calculated.
To evaluate the relation between the compressive threshold force and the tip approaching velocity, the experiment was repeated under different approaching velocities (FIGS. 8-9). The threshold force for a single protein HPPK rupture increases as the apparent loading rate (ALR) by the AFM tip increases (FIG. 8B). ALR equals the approaching velocity times the force constant of AFM cantilever.
A two-state theoretical model, the Bell-Evans theory (eqn. 3), was used to analyze the linear dependence of rupture force with the logarithm of loading rate (FIG. 8B):
where F(r) is the most probable rupture force; kB, the Boltzmann's constant; T, temperature in Kelvin; Xβ is the distance between the bonded state and the transition state where the activation barrier is located; r, the loading rate; and ko the off-rate constant at zero force. The fitting gives two model parameters, kinetic off rate constant ko=12.2±4.5 s^−1 and the distance from the bound to transition state, Xβ=0.34±0.05 nm. Using ko, the barrier height of the transition state (ΔG) was also calculated using the following equation (eqn. 4), where h is the Planck's constant. ΔG of HPPK protein rupture is 27.0±9.8 kBT.
The cover glass (Gold Seal) was first cleaned and silanized with a mixture of (3-aminopropyl) trimethoxysilane and isobutyltrimethoxysilane with a ratio of 1:10000 dissolved in DMSO (10% v/v) for 12 hours, and then incubated in 10 nM dimethyl suberimidate in 50 mM PBS (pH 8.0) for 4 h. After washing by water and methanol, the glass slide was incubated in 10 nM HPPK solutions (PBS, pH 7.4) for 4 h. The possibility of two protein molecules locating underneath the AFM tip or in the same laser focus spot of around 300 nm diameters is almost zero. Cy3-Cy5 labeled HPPK molecules were tethered randomly on a cover glass surface and then incubated in PBS buffer (pH=7.4) in a homemade chamber immobilized on top of the microscope. To decrease photobleaching, added 0.8% D-glucose, 1 mg/mL glucose oxidase, 0.04 mg/mL catalase, and about 1 mM Trolox were added in the buffer as an oxygen scavenger. […]

Sequence of tau protein (P10636 1-441 isoform P10636-8): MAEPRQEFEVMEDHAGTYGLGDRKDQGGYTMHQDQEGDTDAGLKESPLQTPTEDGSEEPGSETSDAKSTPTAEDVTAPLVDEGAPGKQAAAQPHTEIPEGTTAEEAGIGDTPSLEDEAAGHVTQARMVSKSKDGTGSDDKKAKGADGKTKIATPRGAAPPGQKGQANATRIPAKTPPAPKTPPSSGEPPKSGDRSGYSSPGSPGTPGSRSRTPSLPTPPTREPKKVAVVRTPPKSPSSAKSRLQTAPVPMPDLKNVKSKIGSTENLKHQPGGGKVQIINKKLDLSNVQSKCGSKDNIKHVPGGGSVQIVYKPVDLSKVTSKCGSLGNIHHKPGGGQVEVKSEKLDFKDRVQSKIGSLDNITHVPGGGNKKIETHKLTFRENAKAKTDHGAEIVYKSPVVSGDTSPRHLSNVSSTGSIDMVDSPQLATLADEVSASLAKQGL

[K+] [K^+, reference compound]
rupture event of tau protein under compressive force in presence of the cation [1]: the rupture event remains

[Ca+2] [Ca^2+]
rupture event of CaM under compressive force in presence of / after treatment with the substance [2]: does not go through a structural rupture; also recorded: No force drop was recorded

[Mg+2] [Mg^2+]
rupture event of tau protein under compressive force in presence of the cation [1]: does not show such rupture events; also recorded: no rupture event was found; also recorded: No rupture event was observed

calmodulin [CaM]
rupture threshold force ([3]; 50 nm/s approaching velocity): 12 pN | loading energy ([3]; 100 nm/s loading velocity): 4-8 kBT | mean rupture force ([3]; 200 nm/s loading velocity): 25 pN | rupture threshold force ([3]; 1000 nm/s approaching velocity): 35 pN | ΔG of rupture ([3]; Bell-Evans Model): about 25.6±7.3 kBT

O=C(O)CN(CCOCCOCCN(CC(=O)O)CC(=O)O)CC(=O)O [EGTA, reference compound]
rupture event of CaM under compressive force in presence of / after treatment with the substance [2]: the rupture event recovers

B1: 6-hydroxymethyl-7,8-dihydropterin pyrophosphokinase (protein, UniProt P26281 2-159, looked up)
2-amino-4-hydroxy-6-hydroxymet …: TVAYIAIGSNLASPLEQVNAALKALGDIPESHILTVSSFYRTPPLGPQDQPDYLNAAVALETSLAPEELLNHTQRIELQQGRVRKAERWGPRTLDLDIMLFGNEVINTERLTVPHYDMKNRGFMLWPLFEIAPELVFPDGEMLRQILHTRAFDKLNKW
notes: 158-residue monomer kinase enzyme protein
rupture threshold force (mean) ([4]; 200 nm/s approaching/loading velocity): 47 pN | threshold compressive force loading energy ([4]; 200 nm/s loading velocity): around 30 kBT | rupture threshold force ([4]; 2000 nm/s approaching velocity): 75 pN | distance from the bound to transition state Xβ ([4]; Bell-Evans fit): 0.34±0.05 nm | kinetic off rate constant ko ([4]; Bell-Evans fit of rupture force vs loading rate): 12.2 ± 4.5 s⁻¹ | AFM piezoelectric displacement from start of force loading to rupture ([4]; average, FIG. 10C): 5.0˜6.0 nm | barrier height of the transition state ΔG of protein rupture ([4]; calculated from ko): 27.0±9.8 kBT | compressive force level reached before abrupt drop ([4]; single force curve, FIG. 1E): about 60 pN
